Assay results as given in article PMC7600800.
Each block holds one molecule with its values, some of them ahead of it.

Tests used:
Assay in all cases: anti-HA immunoprecipitation, SDS-PAGE and mass spectrometry
[1] = molecular target: dnaJ homolog subfamily A member 1; details: lysates of transfected HEK293 cells; parent: 7
[2] = molecular target: heat shock 70 kDa protein 1-like; details: lysates of transfected HEK293 cells; parent: 13
[3] = molecular target: 78 kDa glucose-regulated protein precursor; details: lysates of transfected HEK293 cells; parent: 39
lamin-B1 isoform 1 = details: lysates of transfected HEK293 cells; parent: -
[4] = molecular target: regulator of chromosome condensation isoform c; details: lysates of transfected HEK293 cells; parent: -
ruvB-like 1 = details: lysates of transfected HEK293 cells; parent: 3
[5] = molecular target: heat shock-related 70 kDa protein 2; details: lysates of transfected HEK293 cells; parent: 14
[6] = molecular target: T1, 14-3-3, endogenous, P63104; details: chain shown with the change; lysates of transfected HEK293 cells; parent: -
T1 chain: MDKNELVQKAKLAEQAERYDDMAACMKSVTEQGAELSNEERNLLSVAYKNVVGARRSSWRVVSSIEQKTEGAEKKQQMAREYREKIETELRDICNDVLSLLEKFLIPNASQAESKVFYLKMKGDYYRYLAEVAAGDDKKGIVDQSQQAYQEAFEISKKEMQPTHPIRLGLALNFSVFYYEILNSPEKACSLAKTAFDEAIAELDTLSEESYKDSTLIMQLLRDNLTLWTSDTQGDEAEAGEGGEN

other: number of unique peptides (unique peptides) [1]: 4
other: number of unique peptides (unique peptides) [2]: 12
other: number of unique peptides (unique peptides) [3]: 34
other: number of unique peptides (unique peptides) (lamin-B1 isoform 1): 3
other: number of unique peptides (unique peptides) [4]: 2
other: number of unique peptides (unique peptides) (ruvB-like 1): 2
other: number of unique peptides (unique peptides) [5]: 6
Molecule: HA-tagged p27 wild type (from UniProt P46527) R30A; N31A; L32A

other: number of unique peptides (unique peptides) [6]: 4
B1: HA-tagged p27 wild type, P46527 R30A; N31A; L32A (protein)
chain: MSNVRVSNGSPSLERMDARQAEHPKPSACAAAFGPVDHEELTRDLEKHCRDMEEASQRKWNFDFQNHKPLEGKYEWQEVEKGSLPEFYYRPPRPPKGACKVPAQESQDVSGSRPAAPLIGAPANSEDTHLVDPKTDPSDSQTGLAEQCAGIRKRPATDDSSTQNKRANRTEENVSDGSPNAGSVEQTPKKPGLRRRQT
